Values of other authors, collected in patent US7550436B2, “Compositions containing peptide and electrolyte excretion promoter and foods containing the same” (Kracie Pharma, Ltd., priority 2000, dated 2009).
No end group written: not given here.

Target: angiotensin converting enzyme (Homo sapiens, UniProt P12821)
Conditions: reported in JP-B-60-23085, JP-B-61-51562, JP-B-61-51564, JP-B-5-21092

angiotensin converting enzyme, sequence (P12821 30-1306, species assumed): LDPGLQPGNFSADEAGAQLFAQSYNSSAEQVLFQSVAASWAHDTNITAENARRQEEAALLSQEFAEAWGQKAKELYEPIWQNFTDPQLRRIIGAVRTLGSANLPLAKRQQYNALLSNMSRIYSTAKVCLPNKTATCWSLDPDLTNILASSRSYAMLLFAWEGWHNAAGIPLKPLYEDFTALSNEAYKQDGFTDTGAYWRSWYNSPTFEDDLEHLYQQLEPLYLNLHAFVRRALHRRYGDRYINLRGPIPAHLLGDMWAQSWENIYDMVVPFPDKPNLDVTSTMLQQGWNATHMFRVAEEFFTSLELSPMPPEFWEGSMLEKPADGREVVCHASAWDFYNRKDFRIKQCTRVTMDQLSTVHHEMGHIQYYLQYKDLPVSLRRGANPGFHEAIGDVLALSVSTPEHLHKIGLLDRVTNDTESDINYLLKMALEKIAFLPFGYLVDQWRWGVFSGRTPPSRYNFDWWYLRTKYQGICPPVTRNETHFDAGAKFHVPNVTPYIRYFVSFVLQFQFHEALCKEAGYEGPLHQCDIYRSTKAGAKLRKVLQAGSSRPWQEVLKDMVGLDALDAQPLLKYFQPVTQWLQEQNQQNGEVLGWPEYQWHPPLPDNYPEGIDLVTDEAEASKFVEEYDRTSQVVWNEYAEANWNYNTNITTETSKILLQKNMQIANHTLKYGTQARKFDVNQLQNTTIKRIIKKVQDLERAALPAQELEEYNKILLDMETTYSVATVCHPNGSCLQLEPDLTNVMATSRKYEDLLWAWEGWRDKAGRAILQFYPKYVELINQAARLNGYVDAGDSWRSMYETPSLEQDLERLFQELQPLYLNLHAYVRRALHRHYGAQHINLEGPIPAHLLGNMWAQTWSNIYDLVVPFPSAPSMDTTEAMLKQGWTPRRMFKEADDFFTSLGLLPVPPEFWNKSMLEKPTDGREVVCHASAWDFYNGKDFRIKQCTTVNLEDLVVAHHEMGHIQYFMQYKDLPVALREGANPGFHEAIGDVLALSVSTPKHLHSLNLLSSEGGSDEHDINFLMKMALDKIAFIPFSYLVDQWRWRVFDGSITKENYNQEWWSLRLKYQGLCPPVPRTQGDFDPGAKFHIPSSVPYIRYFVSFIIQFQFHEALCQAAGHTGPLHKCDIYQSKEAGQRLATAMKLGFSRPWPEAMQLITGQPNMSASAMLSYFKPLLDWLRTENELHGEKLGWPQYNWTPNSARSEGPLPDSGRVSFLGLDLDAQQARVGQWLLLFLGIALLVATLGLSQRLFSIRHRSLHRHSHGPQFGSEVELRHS

Inhibitory activity to angiotensin converting enzyme (ACE), inhibitory activity:
AVPYPQR [Cβ7, ID No. 2, casein-origin peptide]
FFVAPFPEVFGK [Example C12, ID No. 1, casein-origin peptide]
TTMPLW [Example C6, ID No. 3, casein-origin peptide]
